From patent US20190352419A1 (ALX ONCOLOGY, published 2019)

T1: BL6 mouse SIRP-α protein (mouse (C57BL/6 strain), UniProt P97797 32-148)
T1 construct: Soluble SPR analyte; also called C57BL/6
T1 sequence: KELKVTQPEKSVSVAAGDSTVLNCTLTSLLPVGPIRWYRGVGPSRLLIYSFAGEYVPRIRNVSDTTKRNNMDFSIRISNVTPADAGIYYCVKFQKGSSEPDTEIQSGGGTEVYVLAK

T2: cynomolgus SIRP-α (SEQ ID NO:11) (cynomolgus, UniProt Q5TFQ8 30-148 (human entry))
T2 construct: 'extracellular domain (e.g., the D1 domain)' of a cynomolgus SIRP-α polypeptide; soluble SPR analyte; also called cyno1
T2 chain: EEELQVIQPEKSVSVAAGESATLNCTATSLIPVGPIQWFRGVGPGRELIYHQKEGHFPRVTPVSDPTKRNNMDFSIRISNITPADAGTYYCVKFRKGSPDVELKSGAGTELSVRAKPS

T3: NOD mouse SIRP-α protein (mouse (NOD strain))
T3 construct: Soluble SPR analyte
T3 chain: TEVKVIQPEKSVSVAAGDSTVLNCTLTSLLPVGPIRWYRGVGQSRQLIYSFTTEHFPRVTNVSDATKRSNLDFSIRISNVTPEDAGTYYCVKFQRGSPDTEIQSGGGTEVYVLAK

T4: BALBc mouse SIRP-α protein (mouse (BALB/c strain))
T4 construct: Soluble SPR analyte
T4 chain: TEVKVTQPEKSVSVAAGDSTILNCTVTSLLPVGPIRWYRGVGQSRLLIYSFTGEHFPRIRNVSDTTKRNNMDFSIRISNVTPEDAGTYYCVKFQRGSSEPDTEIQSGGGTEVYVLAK


Assays:
human SIRP-α v1 [1] = molecular target: T5, human SIRP-α v1 (human, UniProt P78324 31-149); assay: SPR (refers to Table M)
T5 construct: used as soluble SPR analyte; also called Human V1; hSIRPa v1
T5 sequence (P78324 31-149): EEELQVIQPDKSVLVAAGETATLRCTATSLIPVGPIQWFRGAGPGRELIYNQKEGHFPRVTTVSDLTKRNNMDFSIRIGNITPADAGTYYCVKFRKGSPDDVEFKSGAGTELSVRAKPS

BL6 mouse SIRP-α protein [2] = molecular target: T1, BL6 mouse SIRP-α protein; assay: SPR KD (ProteOn XPR36), antibody on chip, SIRP analyte in solution
[3] = molecular target: T2, cynomolgus SIRP-α (SEQ ID NO:11); assay: binding affinity KD (SPR; method not restated in Example 7)
NOD mouse SIRP-α protein = molecular target: T3, NOD mouse SIRP-α protein; assay: as above
BL6 mouse SIRP-α protein [4] = molecular target: T1, BL6 mouse SIRP-α protein; assay: as above
[5] = molecular target: T4, BALBc mouse SIRP-α protein; assay: as above
human SIRP-α v1 [6] = molecular target: T5, human SIRP-α v1; assay: as above
human SIRP-β = molecular target: T6, human SIRP-β (human, UniProt O00241 30-148); assay: as above
T6 construct: also called SIRPb; hSIRPb
T6 sequence (O00241 30-148): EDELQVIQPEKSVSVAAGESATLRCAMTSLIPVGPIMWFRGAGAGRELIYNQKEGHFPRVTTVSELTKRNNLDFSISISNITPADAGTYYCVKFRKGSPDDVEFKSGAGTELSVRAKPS

human SIRP-γ = molecular target: T7, human SIRP-γ (human, UniProt Q9P1W8 29-147); assay: as above
T7 construct: also called SIRPg; hSIRPg
T7 sequence (Q9P1W8 29-147): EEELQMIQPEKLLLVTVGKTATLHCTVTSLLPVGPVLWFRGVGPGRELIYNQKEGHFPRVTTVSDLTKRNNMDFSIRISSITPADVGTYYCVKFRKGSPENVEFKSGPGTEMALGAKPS

human SIRP-α v2 = molecular target: T8, human SIRP-α v2 (human); assay: as above
T8 construct: soluble SPR analyte; also called Human V2; hSIRPa v2
T8 sequence (chain, as listed by the source): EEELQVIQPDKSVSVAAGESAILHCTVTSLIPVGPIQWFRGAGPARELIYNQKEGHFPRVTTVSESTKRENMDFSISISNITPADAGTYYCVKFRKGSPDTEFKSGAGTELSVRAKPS

Binder | Kd (human SIRP-α v1 [1]) [nM] | Kd (BL6 mouse SIRP-α protein [2]) [nM] | Kd [3] [nM] | Kd (NOD mouse SIRP-α protein) [nM] | Kd (BL6 mouse SIRP-α protein [4]) [nM] | Kd [5] [nM] | Kd (human SIRP-α v1 [6]) [nM] | Kd (human SIRP-β) [nM] | Kd (human SIRP-γ) [nM] | Kd (human SIRP-α v2) [nM]
Hum8/AB21_HC_Mutall (antibody, V domains shown) VH: EVQLVESGGGVVQPGGSLRLSCAASGFTFSSNAMSWVRQAPGKGLEWVAGISAGGSDTYYPASVKGRFTISRDNSKNTLYLQMNSLRAEDTAVYYCARETWNHLFDYWGQGTLVTVSS VL: SYELTQPPSVSVSPGQTARITCSGGAYSSYYYAWYQQKPGQAPVLVIYSDSKRPSGIPERFSGSSSGTTVTLTISGVQAEDEADYYCGGYDQSSYTNPFGGGTKLTVL | ≤ 0.01 | 415000 | – | – | – | – | – | – | – | –
Hum9/AB21_HC_Mutall (antibody, V domains shown) VH: EVQLVESGGGVVQPGGSLRLSCAASGFTFSSNAMSWVRQAPGKGLEWVAGISAGGSDTYYPASVKGRFTISRDNSKNTLYLQMNSLRAEDTAVYYCARETWNHLFDYWGQGTLVTVSS VL: SYELTQPPSVSVSPGQTARITCSGGAYSSYYYAWYQQKPGQAPVLVIYSDDKRPSGIPERFSGSSSGTTVTLTISGVQAEDEADYYCGGYDQSSYTNPFGGGTKLTVL | ≤ 0.01 | 533000 | – | – | – | – | – | – | – | –
PC301 (antibody, human IgG1, lambda, N297A, also called antibody PC301) heavy: not shown light: SYELTQPPSVSVSPGQTARITCSGGSYSSYYYAWYQQKPGQAPVTLIYSDDKRPSNIPERFSGSSSGTTVTLTISGVQAEDEADYYCGGYDQSSYTNPFGGGTKLTVLGQPKAAPSVTLFPPSSEELQANKATLVCLISDFYPGAVTVAWKADSSPVKAGVETTTPSKQSNNKYAASSYLSLTPEQWKSHRSYSCQVTHEGSTVEKTVAPTECS | – | – | 0.0389 | 2.93 | 9.25 | 9.53 | 0.00206 | 0.0122 | – | –
PC367 (antibody, human IgG2, lambda, N297A, AB21 MutAll VH + human IgG2 N297A; Hum1 VL version 2 + IGLC1 SD light chain) heavy: EVQLVESGGGVVQPGGSLRLSCAASGFTFSSNAMSWVRQAPGKGLEWVAGISAGGSDTYYPASVKGRFTISRDNSKNTLYLQMNSLRAEDTAVYYCARETWNHLFDYWGQGTLVTVSSASTKGPSVFPLAPCSRSTSESTAALGCLVKDYFPEPVTVSWNSGALTSGVHTFPAVLQSSGLYSLSSVVTVPSSNFGTQTYTCNVDHKPSNTKVDKTVERKCCVECPPCPAPPVAGPSVFLFPPKPKDTLMISRTPEVTCVVVDVSHEDPEVQFNWYVDGVEVHNAKTKPREEQFASTFRVVSVLTVVHQDWLNGKEYKCKVSNKGLPAPIEKTISKTKGQPREPQVYTLPPSREEMTKNQVSLTCLVKGFYPSDIAVEWESNGQPENNYKTTPPMLDSDGSFFLYSKLTVDKSRWQQGNVFSCSVMHEALHNHYTQKSLSLSPG light: SYELTQPPSVSVSPGQTARITCSGGSYSSYYYAWYQQKPGQAPVTLIYSDDKRPSNIPERFSGSSSGTTVTLTISGVQAEDEADYYCGGYDQSSYTNPFGGGTQLTVLGQPKANPTVTLFPPSSEELQANKATLVCLISDFYPGAVTVAWKADGSPVKAGVETTKPSKQSSDKYAASSYLSLTPEQWKSHRSYSCQVTHEGSTVEKTVAPTECS | – | – | 0.0501 | 6.37 | 19.7 | 7.87 | 0.00211 | 0.0327 | 0.0352 | 0.0823
PC334 (antibody, human IgG1, lambda, N297A, Original Hum1 VL + IGLC1 light chain; also called antibody PC334; Hum1_IGLC1) heavy: not shown light: SYELTQPPSVSVSPGQTARITCSGGSYSSYYYAWYQQKPGQAPVTLIYSDDKRPSNIPERFSGSSSGTTVTLTISGVQAEDEADYYCGGYDQSSYTNPFGGGTKLTVLGQPKANPTVTLFPPSSEELQANKATLVCLISDFYPGAVTVAWKADGSPVKAGVETTKPSKQSNNKYAASSYLSLTPEQWKSHRSYSCQVTHEGSTVEKTVAPTECS | – | – | 0.0774 | 8.19 | 3.29 | 6.75 | 0.0151 | 0.0371 | 0.0452 | 0.0438
